Consider 52 sequences from the supplement of paper PMC9233669.

One series has as its system biotinyl-Leu-oxazolone. Nature of the series: self-aminoacylation, catalytic enhancement (BLO) (fold over background); higher = more active; k-Seq, kA / k0A0; sequences stand for … in GGGAAUGGAUCCACAUCUACGAAUUC…UUCACUGCAGACUUGACGAAGCUG
The procedure, abridged: (§1)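 Mutagenized RNA pools (0.43 μM; 21-nt variable region) were treated with 2–1250 μM of each biotinyl-aminoacyl-oxazolone. Conditions were 50 μL HEPES/NaCl/KCl/MgCl2/CaCl2 buffer, 5% acetonitrile, pH 6.9–7.0, room temperature, 90 minutes. Catalytic enhancement, the median kA relative to the uncatalyzed rate, was derived from streptavidin capture, qPCR and Illumina sequencing.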

The subject of a further series is biotinyl-Phe-oxazolone. Nature of the series: self-aminoacylation, catalytic enhancement (BFO) (fold over background); higher = more active; k-Seq, kA / k0A0; sequences stand for … in GGGAAUGGAUCCACAUCUACGAAUUC…UUCACUGCAGACUUGACGAAGCUG
The procedure, abridged: as §1

The next series has as its system biotinyl-Trp-oxazolone. The series is described as follows: self-aminoacylation, catalytic enhancement (BWO) (fold over background); higher = more active; k-Seq, kA / k0A0; sequences stand for … in GGGAAUGGAUCCACAUCUACGAAUUC…UUCACUGCAGACUUGACGAAGCUG
In a few lines: as §1

Variants at the floor of the assay were thinned out.

As for “AUUCACCUAGCUCCUCGGGUG [Fam2.2 aminoacylation ribozyme variant]”, the self-aminoacylation turned out to be 2.24 with biotinyl-Leu-oxazolone and 5.19 with biotinyl-Phe-oxazolone.

In the case of “ACACACUUCAAGCCAUCGGUC [Fam1B.1 aminoacylation ribozyme variant]”, the figures for the self-aminoacylation in the series on biotinyl-Leu-oxazolone and in the series on biotinyl-Phe-oxazolone were 2.11 and 2.41, respectively.

As to “CGACACUUCACGCAAUCGGUC [Fam1B.1 aminoacylation ribozyme variant]”, the values for the self-aminoacylation in the series on biotinyl-Leu-oxazolone and with biotinyl-Phe-oxazolone were 2.15 and 4.13, respectively.

Consider “AUUCACCUGGGUCAUAGGGUG [Fam2.2 aminoacylation ribozyme variant]”, for which the results for the self-aminoacylation in the series on biotinyl-Leu-oxazolone and with biotinyl-Phe-oxazolone were 2.23 and 6.22, respectively.

As for “AUUCACCUAGGUCAUCUGGCG [Fam2.2 aminoacylation ribozyme variant]”, in the series with biotinyl-Leu-oxazolone, the self-aminoacylation is 2.88.

Take “CUAGUUCAAACAAUCAGUCUG [Fam1A.1 aminoacylation ribozyme variant]”: the self-aminoacylation in the series with biotinyl-Trp-oxazolone came to 2.15; in the series with biotinyl-Phe-oxazolone, 5.02.

With “CUACUUCAAUCAAUCGGACUG [Fam1A.1 aminoacylation ribozyme variant]”, the figures for the self-aminoacylation in the series on biotinyl-Trp-oxazolone and in the series with biotinyl-Phe-oxazolone were 4.18 and 8.24, respectively.

For “AAGUUUGAUUAUAGUCGCAAG [Fam3.1 aminoacylation ribozyme variant]”, the results for the self-aminoacylation with biotinyl-Trp-oxazolone and in the series on biotinyl-Phe-oxazolone were 2.07 and 2.29, respectively.

“CUACUUCAAAUAAUCGGUCUC [Fam1A.1 aminoacylation ribozyme variant]”: the self-aminoacylation in the series on biotinyl-Trp-oxazolone came out at 7.99; in the series on biotinyl-Phe-oxazolone, 15.6.

Consider “UUACUUCAACCAAUCGGUCUG [Fam1A.1 aminoacylation ribozyme variant]”, for which the self-aminoacylation with biotinyl-Trp-oxazolone turned out to be 11.2; in the series on biotinyl-Phe-oxazolone, 16.2.

Regarding “AUUCACCGAGGUCAUCAGGUG [Fam2.2 aminoacylation ribozyme variant]”, the values for the self-aminoacylation in the series on biotinyl-Leu-oxazolone and with biotinyl-Phe-oxazolone were 2.03 and 2.42, respectively.

With “AUAAUUCAAACAAUCGGUCUG [Fam1A.1 aminoacylation ribozyme variant]”, the self-aminoacylation in the series with biotinyl-Trp-oxazolone came out at 2.97; in the series with biotinyl-Phe-oxazolone, 4.88.

With “CCACACUCCAAUCAAUCGGUC [Fam1B.1 aminoacylation ribozyme variant]”, the self-aminoacylation with biotinyl-Trp-oxazolone is 3.48; in the series on biotinyl-Phe-oxazolone, 5.95.

As to “AUUCACCUAGGUUAUCGGGUU [Fam2.2 aminoacylation ribozyme variant]”, the self-aminoacylation with biotinyl-Trp-oxazolone stood at 2.04; in the series with biotinyl-Phe-oxazolone it was 5.07.

For “CUACUUCAAACAAUCGGGCUG [Fam1A.1 aminoacylation ribozyme variant]”, the self-aminoacylation with biotinyl-Trp-oxazolone was 9.43; in the series with biotinyl-Phe-oxazolone, 13.2.

In the case of “CCACUCUUCAAGCAAUCAGUC [Fam1B.1 aminoacylation ribozyme variant]”, the values for the self-aminoacylation in the series on biotinyl-Trp-oxazolone and in the series on biotinyl-Phe-oxazolone were 2.76 and 8.2, respectively.

Consider “CUACUUCAACCAAUCGGUCAG [Fam1A.1 aminoacylation ribozyme variant]”, for which the results for the self-aminoacylation with biotinyl-Trp-oxazolone and in the series with biotinyl-Phe-oxazolone were 3.33 and 6.18, respectively.

Turning to “CCACACUUCAAAAAAUCGGUC [Fam1B.1 aminoacylation ribozyme variant]”, the self-aminoacylation turned out to be 14.5 in the series on biotinyl-Trp-oxazolone and 18.2 with biotinyl-Phe-oxazolone.

Regarding “AAGUUUGCUAAUAGUCGCGAA [Fam3.1 aminoacylation ribozyme variant]”, the self-aminoacylation with biotinyl-Trp-oxazolone amounted to 3.37; with biotinyl-Phe-oxazolone it was 6.39.

As for “CCACCUCAAACAAUCGGUCUG [Fam1A.1 aminoacylation ribozyme variant]”, the self-aminoacylation with biotinyl-Trp-oxazolone and in the series with biotinyl-Phe-oxazolone was 4.25 throughout.

On to “AAGUAUGCUAAAAGUCGCAAG [Fam3.1 aminoacylation ribozyme variant]”, for which the self-aminoacylation in the series with biotinyl-Trp-oxazolone turned out to be 3.97; in the series on biotinyl-Phe-oxazolone, 8.97.

For the sequence “CCAAUCUUCAAGCAAUCGGUC [Fam1B.1 aminoacylation ribozyme variant]”, the self-aminoacylation was 10.7 with biotinyl-Trp-oxazolone and 18.1 in the series on biotinyl-Phe-oxazolone.

Turning to “CUACUUCAACCAAUCGGUCUA [Fam1A.1 aminoacylation ribozyme variant]”, the self-aminoacylation in the series with biotinyl-Trp-oxazolone was found to be 7; in the series on biotinyl-Phe-oxazolone, 11.9.

As for “CUACCUCCAACAAUCGGUCUG [Fam1A.1 aminoacylation ribozyme variant]”, the figures for the self-aminoacylation with biotinyl-Trp-oxazolone and with biotinyl-Phe-oxazolone were 3.94 and 4.71, respectively.

Turning to “CUACUUCAAGCAAUCGGUCUC [Fam1A.1 aminoacylation ribozyme variant]”, the values for the self-aminoacylation in the series on biotinyl-Trp-oxazolone and with biotinyl-Phe-oxazolone were 6.61 and 11.4, respectively.

As for “CUACUUCAAUCAAUCGGUCCG [Fam1A.1 aminoacylation ribozyme variant]”, the self-aminoacylation in the series on biotinyl-Trp-oxazolone came to 4.75; in the series on biotinyl-Phe-oxazolone it was 6.48.

With “CCAAACUUCAAGGAAUCGGUC [Fam1B.1 aminoacylation ribozyme variant]”, the self-aminoacylation in the series with biotinyl-Trp-oxazolone was 5.42; with biotinyl-Phe-oxazolone, 5.98.

Take “CGACCUCAAACAAUCGGUCUG [Fam1A.1 aminoacylation ribozyme variant]”: the values for the self-aminoacylation in the series with biotinyl-Trp-oxazolone and in the series with biotinyl-Phe-oxazolone were 4.64 and 3.54, respectively.

Regarding “AAGUUCGCUAAUAGUCGUAAG [Fam3.1 aminoacylation ribozyme variant]”, the self-aminoacylation turned out to be 4.33 in the series with biotinyl-Trp-oxazolone and 13.7 with biotinyl-Phe-oxazolone.

For “CGACUUCAAAUAAUCGGUCUG [Fam1A.1 aminoacylation ribozyme variant]”, the self-aminoacylation in the series on biotinyl-Trp-oxazolone came to 14.6; with biotinyl-Phe-oxazolone it was 16.2.

For “AAGUAUGCUAAUAGUCGUAAG [Fam3.1 aminoacylation ribozyme variant]”, the self-aminoacylation in the series on biotinyl-Trp-oxazolone worked out at 8.96; in the series on biotinyl-Phe-oxazolone, 33.1.

Take “AAGUCGGCUAAUAGUCGCAAG [Fam3.1 aminoacylation ribozyme variant]”: the values for the self-aminoacylation with biotinyl-Trp-oxazolone and in the series on biotinyl-Phe-oxazolone were 4.2 and 9.73, respectively.

“AUUCACCUACGUCGUCGGGUG [Fam2.2 aminoacylation ribozyme variant]”: the results for the self-aminoacylation with biotinyl-Leu-oxazolone and in the series with biotinyl-Phe-oxazolone were 2.38 and 11.5, respectively.

In the case of “CCCUACUUCAAGCAAUCGGUC [Fam1B.1 aminoacylation ribozyme variant]”, the self-aminoacylation was found to be 33.8 in the series on biotinyl-Trp-oxazolone and 73.5 with biotinyl-Phe-oxazolone.

For “CUGCUCCAAACAAUCGGUCUG [Fam1A.1 aminoacylation ribozyme variant]”, the self-aminoacylation with biotinyl-Trp-oxazolone was 20.3; with biotinyl-Phe-oxazolone, 27.

As for “AAGUUUGCUCAUAGUCGUAAG [Fam3.1 aminoacylation ribozyme variant]”, the values for the self-aminoacylation with biotinyl-Trp-oxazolone and in the series on biotinyl-Phe-oxazolone were 3.67 and 14.6, respectively.

“CUAUUUCAAUCAAUCGGUCUG [Fam1A.1 aminoacylation ribozyme variant]”: the self-aminoacylation worked out at 3.72 in the series with biotinyl-Trp-oxazolone and 6.36 with biotinyl-Phe-oxazolone.

Turning to “CCACAGUUCAAGCAAUCGGUC [Fam1B.1 aminoacylation ribozyme variant]”, the self-aminoacylation in the series with biotinyl-Trp-oxazolone was determined as 3.69; with biotinyl-Phe-oxazolone, 5.12.

For the sequence “CUCCUUCAAACAAUCGGGCUG [Fam1A.1 aminoacylation ribozyme variant]”, the self-aminoacylation in the series with biotinyl-Trp-oxazolone came to 14.4; in the series on biotinyl-Phe-oxazolone it was 15.1.

Take “CCACAAUUCAAUCAAUCGGUC [Fam1B.1 aminoacylation ribozyme variant]”: the self-aminoacylation amounted to 5.08 with biotinyl-Trp-oxazolone and 10.8 in the series on biotinyl-Phe-oxazolone.

“UAACACUUCAAGCAAUCGGUC [Fam1B.1 aminoacylation ribozyme variant]”: the self-aminoacylation in the series with biotinyl-Trp-oxazolone was 13.3; in the series on biotinyl-Phe-oxazolone, 25.6.

Take “AAGCUUGCUAAUAGUCGCAUG [Fam3.1 aminoacylation ribozyme variant]”: the self-aminoacylation stood at 2.07 in the series on biotinyl-Leu-oxazolone and 3.98 in the series on biotinyl-Phe-oxazolone.

Turning to “AAACACUUCAAGCAAUCGGUC [Fam1B.1 aminoacylation ribozyme variant]”, the results for the self-aminoacylation in the series on biotinyl-Trp-oxazolone and with biotinyl-Phe-oxazolone were 11.9 and 18, respectively.

With “CUCAUUCAAACAAUCGGUCUG [Fam1A.1 aminoacylation ribozyme variant]”, the self-aminoacylation in the series on biotinyl-Trp-oxazolone was determined as 7.42; with biotinyl-Phe-oxazolone it was 11.7.

For “ACACACUUCAAGUAAUCGGUC [Fam1B.1 aminoacylation ribozyme variant]”, the self-aminoacylation was found to be 6 in the series on biotinyl-Trp-oxazolone and 7.88 with biotinyl-Phe-oxazolone.

Consider “CUACGUCAAACAAUCGGUGUG [Fam1A.1 aminoacylation ribozyme variant]”, for which the self-aminoacylation in the series on biotinyl-Leu-oxazolone is 2.02.

Consider “AUACACCUAGGUCGUCGGGUG [Fam2.2 aminoacylation ribozyme variant]”, for which the self-aminoacylation in the series with biotinyl-Leu-oxazolone came to 2.55; with biotinyl-Phe-oxazolone it was 6.55.

Regarding “AAGUGUGCUAAUAGUCGGAAG [Fam3.1 aminoacylation ribozyme variant]”, the self-aminoacylation with biotinyl-Trp-oxazolone was determined as 3.96; with biotinyl-Phe-oxazolone it was 11.

Consider “AGGUAUGCUAAUAGUCGCAAG [Fam3.1 aminoacylation ribozyme variant]”, for which the figures for the self-aminoacylation in the series on biotinyl-Trp-oxazolone and in the series on biotinyl-Phe-oxazolone were 3.41 and 9.64, respectively.

Take “CCACACUUGAAGCAUUCGGUC [Fam1B.1 aminoacylation ribozyme variant]”: the self-aminoacylation is 2.09 in the series on biotinyl-Trp-oxazolone and 3.66 in the series on biotinyl-Phe-oxazolone.

Regarding “CUACUUCAAUCAAUCGGUCUC [Fam1A.1 aminoacylation ribozyme variant]”, the self-aminoacylation in the series on biotinyl-Trp-oxazolone was 14.9; in the series on biotinyl-Phe-oxazolone it was 25.9.

“CGAGACUUCAAGCAAUCGGUC [Fam1B.1 aminoacylation ribozyme variant]”: the results for the self-aminoacylation in the series on biotinyl-Trp-oxazolone and in the series on biotinyl-Phe-oxazolone were 4.16 and 5.77, respectively.
